Assay results taken from PMC9482650, “Quantitative fragmentomics allow affinity mapping of interactomes” (Nature Communications, 2022).

T1: DLG3_1, Q92796
T1 sequence (Q92796 125-227, limits assumed, looked up): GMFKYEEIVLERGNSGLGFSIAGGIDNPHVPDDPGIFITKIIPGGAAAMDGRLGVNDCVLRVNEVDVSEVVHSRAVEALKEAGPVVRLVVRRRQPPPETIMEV

T2: FRMPD1, Q5SYB0
T2 sequence (Q5SYB0 52-145, limits assumed, looked up): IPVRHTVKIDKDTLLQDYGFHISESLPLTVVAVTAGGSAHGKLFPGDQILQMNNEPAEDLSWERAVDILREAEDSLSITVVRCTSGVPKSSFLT

T3: LIN7B, Q9HAP6
T3 sequence (Q9HAP6 88-185, limits assumed, looked up): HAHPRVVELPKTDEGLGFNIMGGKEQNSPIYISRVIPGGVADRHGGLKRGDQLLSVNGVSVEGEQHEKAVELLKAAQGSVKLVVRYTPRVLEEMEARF

T4: LNX2_2, Q8N448
T4 sequence (Q8N448 334-432, limits assumed, looked up): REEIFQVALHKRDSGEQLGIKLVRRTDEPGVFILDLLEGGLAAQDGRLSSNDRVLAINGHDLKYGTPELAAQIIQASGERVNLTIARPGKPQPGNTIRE

T5: MPP2, Q14168
T5 sequence (Q14168 180-250, limits assumed, looked up): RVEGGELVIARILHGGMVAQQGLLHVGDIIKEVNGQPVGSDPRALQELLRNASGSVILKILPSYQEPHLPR

T6: PCLO, Q9Y6V0
T6 sequence (Q9Y6V0 4491-4600, limits assumed, looked up): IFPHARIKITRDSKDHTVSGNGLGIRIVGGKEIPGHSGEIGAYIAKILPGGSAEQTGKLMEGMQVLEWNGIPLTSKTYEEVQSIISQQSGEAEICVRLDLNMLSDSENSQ

T7: PDZRN3_1, Q9UPQ7
T7 sequence (Q9UPQ7 244-349, limits assumed, looked up): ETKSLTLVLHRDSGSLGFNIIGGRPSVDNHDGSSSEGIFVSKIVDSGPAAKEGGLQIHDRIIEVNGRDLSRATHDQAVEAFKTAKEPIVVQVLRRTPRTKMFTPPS

T8: RHPN1, Q8TCX5
T8 sequence (Q8TCX5 508-602, limits assumed, looked up): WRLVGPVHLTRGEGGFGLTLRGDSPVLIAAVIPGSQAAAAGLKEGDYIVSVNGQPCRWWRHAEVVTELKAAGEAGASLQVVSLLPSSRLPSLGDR

T9: SNTA1, Q13424
T9 sequence (Q13424 82-180, limits assumed, looked up): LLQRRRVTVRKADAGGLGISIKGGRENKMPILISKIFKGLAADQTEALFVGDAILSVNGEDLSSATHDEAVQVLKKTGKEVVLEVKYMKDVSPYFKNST

T10: SNTG2, Q9NY99
T10 sequence (Q9NY99 68-166, limits assumed, looked up): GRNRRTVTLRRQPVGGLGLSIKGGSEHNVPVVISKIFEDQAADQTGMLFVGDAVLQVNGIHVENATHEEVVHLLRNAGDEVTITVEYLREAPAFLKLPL

T11: TX1BP3, O14907
T11 sequence (O14907 10-122, limits assumed, looked up): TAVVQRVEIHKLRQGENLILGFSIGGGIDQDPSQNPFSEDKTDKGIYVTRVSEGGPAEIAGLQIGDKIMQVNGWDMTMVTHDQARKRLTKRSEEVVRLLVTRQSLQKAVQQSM


How the values were obtained:
Experiment in all cases: holdup assay
Set-up in all cases: key: below the threshold = too weak to quantify, mostly under pKd 3.1 to 4
Settings in all cases: plain residues with an end cap or a label only (N-terminal biotin on a linker: ado-ado)
[1] = biological target: T1, DLG3_1, Q92796
[2] = biological target: DLG4_2, P78352
Sequence of DLG4_2, P78352 (P78352 155-259): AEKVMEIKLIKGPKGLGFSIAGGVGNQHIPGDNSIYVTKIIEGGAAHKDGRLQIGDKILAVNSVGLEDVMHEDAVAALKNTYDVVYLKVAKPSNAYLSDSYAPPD

[3] = biological target: DLG4_3, P78352
Sequence of DLG4_3, P78352 (P78352 306-403): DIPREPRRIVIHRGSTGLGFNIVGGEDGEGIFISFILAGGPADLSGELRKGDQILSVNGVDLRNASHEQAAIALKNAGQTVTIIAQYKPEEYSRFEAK

[4] = biological target: T2, FRMPD1, Q5SYB0
[5] = biological target: FRMPD2_1, Q68DX3
Sequence of FRMPD2_1, Q68DX3 (Q68DX3 770-861): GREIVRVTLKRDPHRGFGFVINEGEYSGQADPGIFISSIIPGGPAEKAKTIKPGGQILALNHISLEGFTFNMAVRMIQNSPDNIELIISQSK

[6] = biological target: GRIP2_3, Q9C0E4
Sequence of GRIP2_3, Q9C0E4 (Q9C0E4 238-339): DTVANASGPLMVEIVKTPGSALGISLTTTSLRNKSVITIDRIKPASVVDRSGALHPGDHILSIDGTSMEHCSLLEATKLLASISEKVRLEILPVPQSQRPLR

[7] = biological target: HTRA1, Q92743
Sequence of HTRA1, Q92743 (Q92743 360-477): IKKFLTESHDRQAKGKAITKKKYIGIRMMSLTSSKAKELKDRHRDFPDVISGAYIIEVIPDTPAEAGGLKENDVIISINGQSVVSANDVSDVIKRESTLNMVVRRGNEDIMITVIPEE

[8] = biological target: HTRA2, O43464
Sequence of HTRA2, O43464 (O43464 355-458): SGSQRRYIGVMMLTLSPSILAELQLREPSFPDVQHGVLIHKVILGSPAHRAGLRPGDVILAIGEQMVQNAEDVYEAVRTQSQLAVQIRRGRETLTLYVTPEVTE

[9] = biological target: IL16_1, Q14005
Sequence of IL16_1, Q14005 (Q14005 210-306): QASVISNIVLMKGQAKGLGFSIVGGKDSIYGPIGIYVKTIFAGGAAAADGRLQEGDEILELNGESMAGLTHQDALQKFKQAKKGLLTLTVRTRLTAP

[10] = biological target: IL16_3, Q14005
Sequence of IL16_3, Q14005 (Q14005 1107-1207): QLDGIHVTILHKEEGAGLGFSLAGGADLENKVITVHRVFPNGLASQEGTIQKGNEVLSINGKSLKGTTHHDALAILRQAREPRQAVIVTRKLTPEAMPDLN

[11] = biological target: IL16_4, Q14005
Sequence of IL16_4, Q14005 (Q14005 1229-1329): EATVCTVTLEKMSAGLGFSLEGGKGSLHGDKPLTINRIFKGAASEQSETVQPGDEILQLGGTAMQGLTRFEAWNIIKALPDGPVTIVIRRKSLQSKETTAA

[12] = biological target: Inadl_4, Q8NI35
Sequence of Inadl_4, Q8NI35 (Q8NI35 547-651): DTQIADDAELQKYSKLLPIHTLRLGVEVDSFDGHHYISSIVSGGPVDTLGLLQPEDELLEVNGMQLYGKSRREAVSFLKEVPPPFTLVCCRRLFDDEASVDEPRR

[13] = biological target: Inadl_8, Q8NI35
Sequence of Inadl_8, Q8NI35 (Q8NI35 1425-1530): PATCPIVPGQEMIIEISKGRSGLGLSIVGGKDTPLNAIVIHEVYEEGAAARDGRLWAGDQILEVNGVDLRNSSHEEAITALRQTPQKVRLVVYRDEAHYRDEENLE

[14] = biological target: LIMK2, P53671
Sequence of LIMK2, P53671 (P53671 143-248): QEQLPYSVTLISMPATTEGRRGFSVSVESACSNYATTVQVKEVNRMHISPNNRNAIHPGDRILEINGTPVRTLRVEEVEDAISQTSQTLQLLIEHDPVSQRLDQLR

[15] = biological target: T3, LIN7B, Q9HAP6
[16] = biological target: T4, LNX2_2, Q8N448
[17] = biological target: T5, MPP2, Q14168
[18] = biological target: NHERF4_1, Q86UT5-2
Sequence of NHERF4_1, Q86UT5-2 (Q86UT5 other isoform, or with tags, fused parts or gaps): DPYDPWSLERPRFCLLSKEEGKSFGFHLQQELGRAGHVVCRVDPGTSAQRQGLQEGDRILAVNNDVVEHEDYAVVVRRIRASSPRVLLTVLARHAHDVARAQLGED

[19] = biological target: PARD3_3, Q8TEW0
Sequence of PARD3_3, Q8TEW0 (Q8TEW0 582-685): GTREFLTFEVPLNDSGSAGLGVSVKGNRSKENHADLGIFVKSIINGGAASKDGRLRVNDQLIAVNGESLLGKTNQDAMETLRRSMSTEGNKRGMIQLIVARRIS

[20] = biological target: T6, PCLO, Q9Y6V0
[21] = biological target: PDLIM1, O00151
Sequence of PDLIM1, O00151 (O00151 1-87): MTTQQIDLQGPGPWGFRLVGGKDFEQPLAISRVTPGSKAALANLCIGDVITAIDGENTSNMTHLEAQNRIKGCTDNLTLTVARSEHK

[22] = biological target: T7, PDZRN3_1, Q9UPQ7
[23] = biological target: T8, RHPN1, Q8TCX5
[24] = biological target: T9, SNTA1, Q13424
[25] = biological target: T10, SNTG2, Q9NY99
[26] = biological target: SNX27, Q96L92
[27] = biological target: T11, TX1BP3, O14907

| Binder | pKd [1] | pKd [2] | pKd [3] | pKd [4] | pKd [5] | pKd [6] | pKd [7] | pKd [8] | pKd [9] | pKd [10] | pKd [11] | pKd [12] | pKd [13] | pKd [14] | pKd [15] | pKd [16] | pKd [17] | pKd [18] | pKd [19] | pKd [20] | also measured |
| --- | --- | --- | --- | --- | --- | --- | --- | --- | --- | --- | --- | --- | --- | --- | --- | --- | --- | --- | --- | --- | --- |
| REVVMRVTTV [MARCHF9, Q86YJ5] | 4.38 | 5.27 | 4.81 | below the threshold | below the threshold | below the threshold | 4.83 | 3.56 | 4.17 | below the threshold | 3.53 | below the threshold | 5.46 | below the threshold | 4.16 | 5.6 | below the threshold | 3.47 | below the threshold | below the threshold | pKd [21]: below the threshold; pKd [22]: 3.81; pKd [23]: 3.91; pKd [24]: 5.27; pKd [25]: 4.65; pKd [26]: 5.46; pKd [27]: 4.61 |
| WRSKRTDTLL [RAMP3, O60896] | below the threshold | 3.98 | below the threshold | below the threshold | below the threshold | below the threshold | 4.26 | below the threshold | below the threshold | below the threshold | below the threshold | below the threshold | below the threshold | below the threshold | below the threshold | below the threshold | below the threshold | 4.33 | 3.48 | below the threshold | pKd [21]: below the threshold; pKd [22]: 3.73; pKd [23]: 4.04; pKd [24]: 3.59; pKd [25]: below the threshold; pKd [26]: 4.31; pKd [27]: 4.13 |
| QELLEYETTV [XKR7, Q5GH72] | 4.51 | 4.91 | below the threshold | below the threshold | below the threshold | below the threshold | 4.69 | below the threshold | 4.12 | below the threshold | below the threshold | below the threshold | 3.59 | below the threshold | 4.5 | 4.71 | below the threshold | below the threshold | 4.19 | below the threshold | pKd [21]: below the threshold; pKd [22]: 4.33; pKd [23]: 4.66; pKd [24]: 4.98; pKd [25]: 4.69; pKd [26]: 5.77; pKd [27]: 3.92 |
| SKSLERATQL [COMMD3, Q9UBI1] | 3.72 | 3.97 | below the threshold | below the threshold | below the threshold | below the threshold | 3.89 | below the threshold | below the threshold | below the threshold | 3.95 | below the threshold | 3.52 | below the threshold | 3.87 | 3.56 | below the threshold | 4.23 | below the threshold | below the threshold | pKd [21]: below the threshold; pKd [22]: 4.11; pKd [23]: 4.13; pKd [24]: 4.06; pKd [25]: below the threshold; pKd [26]: 4.25; pKd [27]: below the threshold |
